Residue numbers refer to the chain shown, from its start.
B1: Ab1022: anti-EpCAM binding domain, FIGS. 8A-8C (antibody, V domains shown)
VH: EVQLVESGGGLVQPGGSLRLSCAASGFTFSNYWMNWVRQHPGKGLEWVAQIRVKSENFATHYADSVKGRFTISRDDSKSTVYLQMNSLRAEDTAVYYCTLYDGFSWGQGTLVTVSS
VL: DIQMTQSPSSLSASVGDRVTITCSASSSVSSGNFHWYQQKPGKAPKLLIYRTSNLASGVPSRFSGSGSGTDYTLTISSLQPEDFATYYCQQWSGYPYTFGQGTKVEIK
B2: Ab1066: anti-EpCAM binding domain, FIGS. 8A-8C (antibody, V domains shown)
VH: B1 VH with H40A, G103A
VL: B1 VL with W92A
B3: Ab1026: anti-EpCAM binding domain, FIGS. 8A-8C (antibody, V domains shown)
VH: B1 VH with H40A
VL: B1 VL with W92A
B4: Ab1065 (antibody, V domains shown)
VH: B1 VH with H40A, D102E
VL: B1 VL with W92A
B5: Ab1024: anti-EpCAM binding domain, FIGS. 8A-8C (antibody, V domains shown)
VH: B1 VH with H40A, A63V
VL: B1 VL
B6: Ab1069: anti-EpCAM T-LITE (CT) antibody, FIGS. 8A-8C, 9C (protein)
light: DIQMTQSPSSLSASVGDRVTITCSASSSVSSGNFHWYQQKPGKAPKLLIYRTSNLASGVPSRFSGSGSGTDYTLTISSLQPEDFATYYCQQWSGYPYTFGQGTKVEIKRTVAAPSVFIFPPSDEQLKSGTASVVCLLNNFYPREAKVQWKVDNALQSGNSQESVTEQDSKDSTYSLSSTLTLSKADYEKHKVYACEVTHQGLSSPVTKSFNRGEC
heavy 1: QVQLVQSGAEVKKPGASVKVSCKASGYTFTSYWMHWVRQHPGQGLEWMGMIHPNSGGTNYAQKFQGRVTMTRDTSTSTVYMELSSLRSEDTAVYYCAMGDYVSRDYWGQGTLVTVSSGGGGSGGGGSGGGGSEIVLTQSPGTLSLSPGERATLSCRASSSVSSSYLHWYQQKPGQAPRLLIYSTSSRATGIPDRFSGSGSGTDFTLTISRLEPEDFAVYYCQQYSGYQFTFGQGTKLEIKGGGGSDKTHTCPPCPAPEAAGGPSVFLFPPKPKDTLMISRTPEVTCVVVDVSHEDPEVKFNWYVDGVEVHNAKTKPREEQYNSTYRVVSVLTVLHQDWLNGKEYKCKVSNKALGAPIEKTISKAKGQPREPMVFDLPPSREEMTKNQVSLWCMVKGFYPSDIAVEWESNGQPENNYKTTPPVLDSDGSFFLYSKLTVDKSRWQQGNVFSCSVMHEALHNHYTQKSLSLSPGKHHHHHH
heavy 2: EVQLVESGGGLVQPGGSLRLSCAASGFTFSNYWMNWVRQAPGKGLEWVAQIRVKSENFATHYADSVKGRFTISRDDSKSTVYLQMNSLRAEDTAVYYCTLYDGFSWGQGTLVTVSSASTKGPSVFPLAPSSKSTSGGTAALGCLVKDYFPEPVTVSWNSGALTSGVHTFPAVLQSSGLYSLSSVVTVPSSSLGTQTYICNVNHKPSNTKVDKKVEPKSCDKTHTCPPCPAPEAAGGPSVFLFPPKPKDTLMISRTPEVTCVVVDVSHEDPEVKFNWYVDGVEVHNAKTKPREEQYNSTYRVVSVLTVLHQDWLNGKEYKCKVSNKALGAPIEKTISKAKGQPREPQVYTLPPIRELMTSNQVSLSCAVKGFYPSDIAVEWESNGQPENNYKTTPPVLDSDGSFFLVSKLTVDKSRWQQGNVFSCSVMHEALHNHYTQKSLSLSPGK
modifications: REGION 1..215: note = Ab1069 Hole LC; REGION 1..478: note = Ab1069 Knob KC; REGION 1..446: note = Ab1069 Hole HC

Experiment: Differential scanning fluorimetry (DSF) melting temperature
Assay type: physicochemical
Details: thermostability by DSF; Table 26
Procedure: DSF was performed on a LC480 Lightcycler Instrument II (Roche). Purified recombinant protein was diluted to 5 μM in DSF buffer (PBS, pH 7.4, Sypro Orange 5×) with small molecule (10 μM VTX) or vehicle (0.05% DMSO) and then heated with a temperature gradient (0.01° C./s) from 25 to 95° C. Data were continuously acquired at ˜465 nm (excitation) and ˜580 nm (emission). Data was analyzed to generate first derivative curves in which the curve maximum was reported as the melting temperature of the protein.
In the case of B1, the “TM (° C.)” value is reported as 69.6 °C.
In the case of B2, the “TM (° C.)” value is reported as 70.4 °C.
For B3, the “TM (° C.)” value was 69.1 °C.
In the case of B4, the “TM (° C.)” value is reported as 72.3 °C.
In the case of B5, the “TM (° C.)” value is reported as 73.2 °C.

Same assay, conditions: thermostability by DSF; Table 27
In the case of B6, the “TM (° C.)” value is reported as 72.0 °C.

Source: patent publication US20240190987A1, “Engineered EpCam Binding Antibodies” (TigaTX, priority 2021, published 2024)
